From publication PMC7555870, “Isolation, Evaluation, and Identification of Angiotensin I-Converting Enzyme Inhibitory Peptides from Game Meat” (Foods, 2020)
Like-named read-outs stand apart in the source and are kept apart here. Marks after values point to notes of the source that are not given here. Where no end group is shown, it is not given here. [ ]: non-standard residue; d: D form.

What was measured:
ACE = settings: previously reported peptides; cited from earlier work
From the text: The potent ACE inhibitory peptides are generally short chains of 3–6 amino acids, with a Ser, Leu, or Thr at the C-terminal, which plays an important role in this activity. The ACE inhibitory peptides identified in this study, except for IKEVTER, seem to be of a larger size than those of inhibitory peptides described in previous reports. ACE inhibitory peptides have been previously reported from meat and seafood vertebrate specimens, and their IC50 values have been reported.

[1] = target: T1, ACE, a dipeptidyl carboxypeptidase (EC 3.4.15.1) extracted from rabbit lung (Oryctolagus cuniculus, UniProt P12822); test: ACE inhibitory activity assay, modified Cheung method (96-well plate, HHL, OPA fluorescence); type: biochemical; settings: synthesized peptides identified from digested venison; mean ± SD of three repeated experiments; ND = not detectable
T1 construct: extracted from rabbit lung; purchased Sigma Chemical Co. (St. Louis, MO, USA); host or cells: rabbit lung tissue
T1 sequence (P12822 34-1310): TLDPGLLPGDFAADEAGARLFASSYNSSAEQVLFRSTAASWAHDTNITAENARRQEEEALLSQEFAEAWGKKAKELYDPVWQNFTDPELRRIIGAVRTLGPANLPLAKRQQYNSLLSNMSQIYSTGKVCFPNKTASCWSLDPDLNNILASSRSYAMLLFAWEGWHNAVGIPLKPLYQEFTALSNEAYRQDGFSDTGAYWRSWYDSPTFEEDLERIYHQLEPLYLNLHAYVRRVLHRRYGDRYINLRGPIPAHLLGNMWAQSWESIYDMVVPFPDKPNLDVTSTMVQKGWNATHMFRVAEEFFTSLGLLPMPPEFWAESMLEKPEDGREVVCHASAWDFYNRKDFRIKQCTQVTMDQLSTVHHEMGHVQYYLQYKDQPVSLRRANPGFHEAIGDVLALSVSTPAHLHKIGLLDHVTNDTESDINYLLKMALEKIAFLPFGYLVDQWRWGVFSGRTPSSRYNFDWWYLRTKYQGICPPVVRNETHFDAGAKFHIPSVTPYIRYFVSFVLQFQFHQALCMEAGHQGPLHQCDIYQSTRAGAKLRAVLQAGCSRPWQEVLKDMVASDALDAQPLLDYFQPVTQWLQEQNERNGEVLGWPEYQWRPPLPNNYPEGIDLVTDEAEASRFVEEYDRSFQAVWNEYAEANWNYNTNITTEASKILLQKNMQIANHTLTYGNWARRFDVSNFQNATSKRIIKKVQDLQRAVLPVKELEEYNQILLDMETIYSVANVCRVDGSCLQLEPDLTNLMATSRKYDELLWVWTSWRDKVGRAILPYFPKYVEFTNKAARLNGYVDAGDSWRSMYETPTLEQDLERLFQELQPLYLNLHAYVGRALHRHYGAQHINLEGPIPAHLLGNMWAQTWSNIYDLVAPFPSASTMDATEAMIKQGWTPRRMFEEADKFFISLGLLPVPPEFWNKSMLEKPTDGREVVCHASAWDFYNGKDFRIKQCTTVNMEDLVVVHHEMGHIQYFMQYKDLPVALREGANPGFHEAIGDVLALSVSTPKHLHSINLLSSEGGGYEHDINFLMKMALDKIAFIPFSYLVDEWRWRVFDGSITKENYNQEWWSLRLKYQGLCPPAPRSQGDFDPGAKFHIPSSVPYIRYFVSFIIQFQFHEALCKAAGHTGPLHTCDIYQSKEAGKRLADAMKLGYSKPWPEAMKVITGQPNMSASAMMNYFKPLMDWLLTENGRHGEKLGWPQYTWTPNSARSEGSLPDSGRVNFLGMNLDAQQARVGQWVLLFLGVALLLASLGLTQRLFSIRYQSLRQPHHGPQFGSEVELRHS
Method: The digested samples were centrifuged at 10,000× g for 15 min, and the supernatants were subjected to an ACE inhibitory assay. ACE inhibitory activity was measured using a previously reported method. ACE, a dipeptidyl carboxypeptidase (EC 3.4.15.1) extracted from rabbit lung, was obtained from Sigma Chemical Co. (St. Louis, MO, USA). Hippuryl-L-histidyl-L-leucine (HHL) (Nacalai Tesque) was used as the synthetic substrate. A 40 µL aliquot of each sample solution was added to 100 µL of borate buffer (containing 0.3 M NaCl, 5 mM HHL, pH 8.3) and incubated at 37 °C for 3 min. Then, 20 µL ACE solution (0.1 U mL^−1) was added to each sample solution, and the reaction mixture was incubated at 37 °C for 30 min. After that, the reaction was terminated using 250 µL of 1 M HCl, and hippuric acid was extracted by adding 1.5 mL of ethyl acetate and shaking. Eventually, mixtures were centrifuged at 1750× g for 10 min, 1 mL of supernatant was transferred into a test tube, and ethyl acetate was eliminated by heat evaporation at 95 °C. The precipitate was re-dissolved in 2 mL of deionized water and measured spectrophotometrically at 228 nm, using a UV-1800 spectrophotometer (Shimadzu, Kyoto, Japan). For the analysis of samples fractionated by reversed-phase chromatography, the synthetic peptides were assayed using the modified method reported by Cheung, et al.. Briefly, 50 µL of sample solution, 100 µL of the ACE 0.01 U/mL, and 20 µL of 25 mM HHL were mixed in a 96-well plate and incubated at 37 °C for 40 min. Subsequently, 100 µL of 1 M NaOH, 10 µL 0.2% OPA, and 15 µL 3.6 M phosphoric acid were added, and the fluorescence of samples was measured using the plate-reader POWERSCAN MX (DS Pharma Biomedical Co., Ltd., Osaka, Japan) at an excitation wavelength of 360 nm and emission wavelength of 460 nm. The inhibitory activity (%) was calculated as follows: inhibitory activity (%) = ((Ac – As)/(Ac – Ab)) × 100. Ac is the intensity of the control, as is the intensity of the sample, and Ab is the intensity of the blank. Data are expressed as the 50% inhibitory concentration (IC50) for each sample.

[2] = target: T2, angiotensin I-converting enzyme (ACE), a dipeptidyl carboxypeptidase (EC 3.4.15.1) extracted from rabbit lung (rabbit) (UniProt P12822)
T2 sequence: T1 sequence (P12822 34-1310)

Molecule: DFHING
- ACE inhibition IC50 values (ACE): 64.3 µg/mL

Molecule: GFHI
- ACE inhibition IC50 values (ACE): 117 µg/mL

Molecule: GLSDGEWQ
- ACE inhibition IC50 values (ACE): 50.5 µg/mL

Molecule: IKEVTER [IKEVTER, Isoleucine-Lysine- Glutamic Acid-Valine-Threonine-Glutamic Acid-Arginine]
- IC50 [1]: 99 µM

Molecule: TEAGATVTVK [TEAGATVTVK]
- IC50 [1]: 214 µM

Molecule: VcNYVNWIQQTIAAN (V[code c]NYVNWIQQTIAAN; not fully specified; printed as VcNYVNWIQQTIAAN) [synthesized peptide identified from digested venison; origin Tropomyosin alpha-3 chain]
- Ace Inhibitory Activity (IC50) [1]: 358.64 ± 64.71 ^a μg/mL

Molecule: mQGTLEDQIISANPLLEAFGNAK ([code m]QGTLEDQIISANPLLEAFGNAK; not fully specified; printed as mQGTLEDQIISANPLLEAFGNAK) [synthesized peptide identified from digested venison; origin Myosin-1]
- Ace Inhibitory Activity (IC50) [1]: 292.83 ± 38.27 ^a,b μg/mL

Molecule: TEAGATVTVK […]
- ACE inhibitory activity (IC50; hydrolysis of hippuryl-L-histidyl-L-leucine by ACE, OPA fluorescence, 37 °C) [2]: 359 µg/mL
- ACE inhibitory activity (IC50; hydrolysis of hippuryl-L-histidyl-L-leucine by ACE, OPA fluorescence, 37 °C) ([2]; record 2): 293 µg/mL
- ACE inhibitory activity (IC50; hydrolysis of hippuryl-L-histidyl-L-leucine by ACE, OPA fluorescence, 37 °C) ([2]; record 3): 86.5 µg/mL
- ACE inhibitory activity (IC50; hydrolysis of hippuryl-L-histidyl-L-leucine by ACE, OPA fluorescence, 37 °C) ([2]; record 4): 209 µg/mL
